Results as given in IntAct's records for PubMed 29039417.

B1: Protein PTHB1 (Homo sapiens), Q3SYG4 (parent)
chain: MSLFKARDWWSTILGDKEEFDQGCLCLANVDNSGNGQDKIIVGSFMGYLRIFSPHPAKTGDGAQAEDLLLEVDLRDPVLQVEVGKFVSGTEMLHLAVLHSRKLCVYSVSGTLGNVEHGNQCQMKLMYEHNLQRTACNMTYGSFGGVKGRDLICIQSMDGMLMVFEQESYAFGRFLPGFLLPGPLAYSSRTDSFLTVSSCQQVESYKYQVLAFATDADKRQETEQQKLGSGKRLVVDWTLNIGEQALDICIVSFNQSASSVFVLGERNFFCLKDNGQIRFMKKLDWSPSCFLPYCSVSEGTINTLIGNHNNMLHIYQDVTLKWATQLPHIPVAVRVGCLHDLKGVIVTLSDDGHLQCSYLGTDPSLFQAPNVQSRELNYDELDVEMKELQKIIKDVNKSQGVWPMTEREDDLNVSVVVSPNFDSVSQATDVEVGTDLVPSVTVKVTLQNRVILQKAKLSVYVQPPLELTCDQFTFEFMTPDLTRTVSFSVYLKRSYTPSELEGNAVVSYSRPTDRNPDGIPRVIQCKFRLPLKLICLPGQPSKTASHKITIDTNKSPVSLLSLFPGFASQSDDDQVNVMGFHFLGGARITVLASKTSQRYRIQSEQFEDLWLITNELILRLQEYFEKQGVKDFACSFSGSIPLQEYFELIDHHFELRINGEKLEELLSERAVQFRAIQRRLLARFKDKTPAPLQHLDTLLDGTYKQVIALADAVEENQGNLFQSFTRLKSATHLVILLIALWQKLSADQVAILEAAFLPLQEDTQELGWEETVDAAISHLLKTCLSKSSKEQALNLNSQLNIPKDTSQLKKHITLLCDRLSKGGRLCLSTDAAAPQTMVMPGGCTTIPESDLEERSVEQDSTELFTNHRHLTAETPRPEVSPLQGVSE
partner: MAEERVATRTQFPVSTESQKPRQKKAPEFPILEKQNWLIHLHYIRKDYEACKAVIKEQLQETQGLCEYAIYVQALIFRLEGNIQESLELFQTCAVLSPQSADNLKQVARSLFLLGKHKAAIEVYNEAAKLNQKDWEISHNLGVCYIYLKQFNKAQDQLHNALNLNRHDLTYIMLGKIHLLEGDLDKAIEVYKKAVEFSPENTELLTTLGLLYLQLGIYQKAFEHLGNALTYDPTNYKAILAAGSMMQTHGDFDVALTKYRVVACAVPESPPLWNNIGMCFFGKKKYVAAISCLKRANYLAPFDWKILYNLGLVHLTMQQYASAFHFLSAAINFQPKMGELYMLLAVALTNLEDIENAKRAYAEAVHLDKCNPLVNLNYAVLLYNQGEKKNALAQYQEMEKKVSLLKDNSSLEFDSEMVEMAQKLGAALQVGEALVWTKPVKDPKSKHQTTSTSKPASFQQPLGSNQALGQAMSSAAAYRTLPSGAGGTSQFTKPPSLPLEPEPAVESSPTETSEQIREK

Variants of: B1
Conditions: with bbs4_human BBS4, Q96RK4

Row | effect of a mutation on the interaction | Variant
1 | with no effect | N503K
2 | with no effect | N503E
3 | with no effect | N503A
4 | with no effect | Y508K
5 | with no effect | Y508E
6 | with no effect | Y508A
7 | with no effect | E475A
8 | with no effect | E475K
9 | with no effect | P497E
10 | with no effect | P497A
11 | with no effect | P497K
12 | with no effect | D480K
13 | with no effect | D480E
14 | with no effect | D480A
15 | with no effect | F487E
16 | disrupting interaction strength | F487S
17 | with no effect | F487K
18 | with no effect | F487A
19 | with no effect | R483E
20 | with no effect | R483K
21 | with no effect | R483A
22 | with no effect | R493A
23 | with no effect | R493K
24 | with no effect | R493E
25 | with no effect | G502E
26 | with no effect | G502A

Row | effect of a mutation on the interaction | Variant
27 | disrupting interaction strength | G502R
28 | with no effect | G502K
29 | with no effect | T484A
30 | with no effect | T484E
31 | with no effect | T484K
32 | with no effect | S498K
33 | with no effect | S498E
34 | with no effect | S498A
35 | with no effect | F476K
36 | with no effect | F476A
37 | with no effect | F476E
38 | with no effect | Y490A
39 | with no effect | Y490E
40 | with no effect | Y490K
41 | with no effect | Y495K
42 | with no effect | Y495A
43 | with no effect | Y495E
44 | with no effect | K492E
45 | with no effect | K492A
46 | with no effect | S486E
47 | disrupting interaction strength | S486R
48 | with no effect | S486K
49 | with no effect | S486A
50 | with no effect | S494K
51 | with no effect | S494A
52 | with no effect | S494E

Row | effect of a mutation on the interaction | Variant
53 | with no effect | V485E
54 | with no effect | V485K
55 | with no effect | V485A
56 | with no effect | A504E
57 | with no effect | A504K
58 | with no effect | S488K
59 | with no effect | S488A
60 | with no effect | S488E
61 | with no effect | E501A
62 | with no effect | E501K
63 | with no effect | T478K
64 | with no effect | T478A
65 | with no effect | T478E
66 | with no effect | S507K
67 | with no effect | S507E
68 | with no effect | S507A
69 | with no effect | M477E
70 | with no effect | M477K
71 | with no effect | M477A
72 | with no effect | L491A
73 | with no effect | L491E
74 | with no effect | L491K
75 | with no effect | V489E
76 | with no effect | V489A
77 | with no effect | V489K
78 | with no effect | T482K

Row | effect of a mutation on the interaction | Variant
79 | with no effect | T482A
80 | with no effect | T482E
81 | with no effect | T496A
82 | with no effect | T496K
83 | with no effect | T496E
84 | with no effect | E499K
85 | with no effect | E499A
86 | with no effect | S509K
87 | with no effect | S509E
88 | disrupting interaction strength | S509P
89 | with no effect | S509A
90 | with no effect | L500A
91 | with no effect | L500E
92 | with no effect | L500K
93 | with no effect | V505A
94 | with no effect | V505E
95 | with no effect | V505K
96 | with no effect | V506K
97 | with no effect | V506A
98 | disrupting interaction strength | V506E
99 | with no effect | P479A
100 | with no effect | P479E
101 | with no effect | P479K
102 | with no effect | L481K
103 | with no effect | L481A
104 | with no effect | L481E

Second part, the variant before the results:

Row | Variant | effect of a mutation on the interaction
105 | L467A | with no effect
106 | L467E | with no effect
107 | L467K | with no effect
108 | D470A | with no effect
109 | D470E | with no effect
110 | D470K | with no effect
111 | L457E | with no effect
112 | L457A | with no effect
113 | L457K | with no effect
114 | E466A | with no effect
115 | E466K | with no effect
116 | K454A | with no effect
117 | K454E | with no effect
118 | T473E | with no effect
119 | T473K | with no effect
120 | T473A | with no effect
121 | L452E | with no effect
122 | L452K | with no effect
123 | L452A | with no effect
124 | L452S | disrupting interaction strength
125 | F472K | with no effect
126 | F472E | with no effect
127 | F472A | with no effect
128 | Q453A | with no effect
129 | Q453K | with no effect
130 | Q453E | with no effect

Row | Variant | effect of a mutation on the interaction
131 | S458K | with no effect
132 | S458E | with no effect
133 | S458A | with no effect
134 | I451K | with no effect
135 | I451E | with no effect
136 | I451A | with no effect
137 | L465A | with no effect
138 | L465E | disrupting interaction strength
139 | L465K | disrupting interaction strength
140 | A455E | with no effect
141 | A455K | with no effect
142 | C469E | with no effect
143 | C469A | with no effect
144 | C469K | with no effect
145 | Q471K | with no effect
146 | Q471A | with no effect
147 | Q471E | with no effect
148 | V459A | disrupting interaction strength
149 | V459E | with no effect
150 | V459K | with no effect
151 | F474E | with no effect
152 | F474A | with no effect
153 | F474K | with no effect
154 | Q462K | with no effect
155 | Q462T | disrupting interaction strength
156 | Q462A | with no effect

Row | Variant | effect of a mutation on the interaction
157 | Q462E | with no effect
158 | V461K | with no effect
159 | V461A | with no effect
160 | V461E | with no effect
161 | V450A | with no effect
162 | V450M | disrupting interaction strength
163 | V450K | with no effect
164 | V450E | with no effect
165 | R449A | with no effect
166 | R449K | with no effect
167 | R449E | with no effect
168 | P464A | with no effect
169 | P464K | with no effect
170 | P464E | with no effect
171 | K456A | with no effect
172 | K456E | with no effect
173 | T468K | with no effect
174 | T468E | with no effect
175 | T468A | with no effect
176 | Y460K | with no effect
177 | Y460E | with no effect
178 | Y460A | with no effect
179 | P463E | with no effect
180 | P463A | with no effect
181 | P463T | disrupting interaction strength
182 | P463K | with no effect
